In paper PMC3307385:

Biological target: mouse soluble recombinant SLLP1 (mouse) (UniProt Q9D9X8)
Test: SPR

Chain of UniProt Q9D9X8 (Q9D9X8 95-221): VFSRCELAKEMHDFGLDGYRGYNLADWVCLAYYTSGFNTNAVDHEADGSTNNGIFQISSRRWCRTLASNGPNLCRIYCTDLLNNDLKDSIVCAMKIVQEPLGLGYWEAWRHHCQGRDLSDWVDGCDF

Kd: 0.32 nM
Substance: recombinant mouse SAS1B (V2), full length doublet (~51, ~50 kD) (natural protein)
